Measurements published in the supplement of paper PMC9112550, “Optimization of the antimicrobial peptide Bac7 by deep mutational scanning” (BMC Biology, 2022).

Tested on: Escherichia coli TOP10
Assay: shrunken log2 fold change of peptide-encoding DNA abundance (4.5 h post-induction vs induction); higher = less antimicrobial activity (less host growth inhibition)
Conditions: time post-induction: 4.5 h; library: site-saturation at positions 5, 18, 19, 20
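Further: peptides expressed intracellularly from a pBAD plasmid library in pooled LB shake-flask culture, induced with 0.3% L-arabinose, DNA abundance read by NGS, three biological replicates, DESeq2 with apeglm shrinkage.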

Sequence	shrunken log2 fold change
RRIRQRPPRLPRPRPRPNTMPRP	0.12
RRIRCRPPRLPRPRPRPVLWPRP	0.136
RRIRTRPPRLPRPRPRPRSTPRP	0.377
RRIRPRPPRLPRPRPRPCFKPRP	-0.341
RRIRVRPPRLPRPRPRPPGGPRP	0.598
RRIRSRPPRLPRPRPRPEVVPRP	0.471
RRIRERPPRLPRPRPRPWYIPRP	-0.0599
RRIRTRPPRLPRPRPRPNWLPRP	0.295
RRIRGRPPRLPRPRPRPDAQPRP	2.38
RRIRIRPPRLPRPRPRPLKEPRP	-0.568
RRIRDRPPRLPRPRPRPSRIPRP	-0.307
RRIRYRPPRLPRPRPRPKFTPRP	-0.328
RRIRWRPPRLPRPRPRPPGWPRP	0.527
RRIRNRPPRLPRPRPRPRVNPRP	-0.0734
RRIRFRPPRLPRPRPRPCTNPRP	-0.598
RRIRIRPPRLPRPRPRPVMVPRP	-0.066
RRIRNRPPRLPRPRPRPQIEPRP	-0.251
RRIRERPPRLPRPRPRPYKIPRP	-0.266
RRIRERPPRLPRPRPRPMKAPRP	-0.00245
RRIRKRPPRLPRPRPRPYYKPRP	-0.445
RRIRYRPPRLPRPRPRPWSHPRP	-0.05
RRIRPRPPRLPRPRPRPTCLPRP	-0.105
RRIRLRPPRLPRPRPRPSIMPRP	-0.319

Sequence	shrunken log2 fold change
RRIRCRPPRLPRPRPRPIPDPRP	0.106
RRIRQRPPRLPRPRPRPCGLPRP	0.131
RRIRDRPPRLPRPRPRPHKRPRP	-0.0521
RRIRCRPPRLPRPRPRPGEFPRP	-0.179
RRIRYRPPRLPRPRPRPVNPPRP	-0.0594
RRIRARPPRLPRPRPRPCQMPRP	-0.0341
RRIRHRPPRLPRPRPRPPQAPRP	0.236
RRIRPRPPRLPRPRPRPSWTPRP	-0.326
RRIRERPPRLPRPRPRPQLRPRP	-0.00323
RRIRQRPPRLPRPRPRPFVKPRP	-0.234
RRIRTRPPRLPRPRPRPEKEPRP	0.0172
RRIRVRPPRLPRPRPRPWYQPRP	-0.197
RRIRLRPPRLPRPRPRPILSPRP	-0.0305
RRIRERPPRLPRPRPRPCYEPRP	-0.0528
RRIRPRPPRLPRPRPRPKEFPRP	-0.0187
RRIRSRPPRLPRPRPRPRLTPRP	0.0483
RRIRKRPPRLPRPRPRPYWTPRP	-0.26
RRIRHRPPRLPRPRPRPLMRPRP	0.221
RRIRKRPPRLPRPRPRPDQLPRP	0.107
RRIRHRPPRLPRPRPRPIRDPRP	0.0386
RRIRWRPPRLPRPRPRPIDEPRP	0.0867
RRIRERPPRLPRPRPRPRFSPRP	-0.0175
RRIRARPPRLPRPRPRPTKNPRP	0.429

Sequence	shrunken log2 fold change
RRIRWRPPRLPRPRPRPLECPRP	0.0173
RRIRKRPPRLPRPRPRPLRSPRP	0.962
RRIRPRPPRLPRPRPRPAWMPRP	0.372
RRIRNRPPRLPRPRPRPQMTPRP	-0.661
RRIRERPPRLPRPRPRPVQWPRP	0.149
RRIRNRPPRLPRPRPRPNPVPRP	-0.139
RRIRARPPRLPRPRPRPVNKPRP	-0.117
RRIRWRPPRLPRPRPRPTAAPRP	1.65
RRIRMRPPRLPRPRPRPFVQPRP	-0.216
RRIRDRPPRLPRPRPRPTHDPRP	0.666
RRIRHRPPRLPRPRPRPSPFPRP	-0.199
RRIRSRPPRLPRPRPRPKRTPRP	0.312
RRIRMRPPRLPRPRPRPHWLPRP	-0.183
RRIRLRPPRLPRPRPRPKAMPRP	-0.023
RRIRGRPPRLPRPRPRPDMYPRP	0.0675
RRIRMRPPRLPRPRPRPTKSPRP	0.459
RRIRARPPRLPRPRPRPCSCPRP	0.0516
RRIRHRPPRLPRPRPRPFRCPRP	-0.556
RRIRRRPPRLPRPRPRPSLCPRP	1.05
RRIRPRPPRLPRPRPRPHGFPRP	-0.21
RRIRERPPRLPRPRPRPAIFPRP	-0.12
RRIRARPPRLPRPRPRPIDCPRP	0.335
RRIRVRPPRLPRPRPRPRWRPRP	0.587

Sequence	shrunken log2 fold change
RRIRQRPPRLPRPRPRPYTGPRP	-0.0162
RRIRWRPPRLPRPRPRPNMYPRP	-0.436
RRIRHRPPRLPRPRPRPDYYPRP	-0.622
RRIRARPPRLPRPRPRPCMQPRP	-0.125
RRIRCRPPRLPRPRPRPNFIPRP	-0.616
RRIRVRPPRLPRPRPRPLPLPRP	0.0752
RRIRHRPPRLPRPRPRPKMHPRP	-0.0718
RRIRLRPPRLPRPRPRPCGEPRP	0.122
RRIRFRPPRLPRPRPRPQCKPRP	-0.422
RRIRPRPPRLPRPRPRPAWWPRP	0.259
RRIRHRPPRLPRPRPRPYWFPRP	-0.963
RRIRERPPRLPRPRPRPSLTPRP	-0.699
RRIRFRPPRLPRPRPRPPELPRP	0.106
RRIRVRPPRLPRPRPRPCVMPRP	-0.0841
RRIRHRPPRLPRPRPRPTPDPRP	0.134
RRIRQRPPRLPRPRPRPYSMPRP	-0.031
RRIRVRPPRLPRPRPRPQLKPRP	-0.177
RRIRHRPPRLPRPRPRPPVVPRP	0.253
RRIRTRPPRLPRPRPRPYANPRP	-0.00264
RRIRRRPPRLPRPRPRPYTFPRP	-0.0103
RRIRNRPPRLPRPRPRPHMRPRP	-0.00174
RRIRNRPPRLPRPRPRPLDHPRP	-0.0699
